Assay results as given in patent US12221465.

Target: empty A2-SABR pulsed with soluble MART1 peptide (…) (Homo sapiens; human) (UniProt P61769)
Assay: cell-based or functional assay

- fold decrease in antigen sensitivity (concentration of the peptide required for half-maximal signaling), SABR signaling against TCR signaling: 30 fold
Substance: F5 TCR
